Here are results for two molecules from article PMC12207370 (2025).

Bridge positions count the residues as written; N and C are the ends. Square brackets hold non-standard residues; d marks the D form. Ends that are not written are not given here.

Sequences and labels used below:
B1: CD59 (immobilized for SPR) (receptor)
chain: LQCYNCPNPTADCKTAVNCSSDFDACLITKAGLQVYNKCWKFEHCNFNDVTTRLRENELTYYCCKKDLCNFNEQLEN

Among the targets are rILYd4 (Streptococcus intermedius, UniProt Q9LCB8 1-532); CP-03; CP-02; CP-04; CP-13 (N-terminal Ac-D-Tyr cyclized to a C-terminal Cys (thioether macrocycle)).
Common to all, as to assay: SPR
For assay [1], the target named is B1.
The target in assay [2] is B1.

B1: the Kd was found to be 48.3 nM in the assay with rILYd4; 23.4 nM in the assay with CP-03; 15.3 nM with CP-02; 11.9 nM in the assay with CP-04; 10.8 nM with CP-13.
In turn, {CH2CO}-[dY]SWTWGNRSSVRGC (thioether N-14) [CP-06] displayed a koff in assay [1] of 0.0204 s⁻¹. In assay [2], this molecule yielded a Kd of 11.3 nM.

As a reminder, the Kd is a measure of binding affinity in units of concentration. What is called koff is a measure of how fast the partners let go of each other.
